Test results taken from patent US8415106B2, “Cell-based screen for agents useful for reducing neuronal demyelination or promoting neuronal remyelination” (Myelin Repair Foundation, Inc., priority 2005, dated 2013).

Test system: oligodendrocytes and myelin in the corpus callosum
Assay: Cuprizone-induced demyelination/remyelination in GFAP/tTA; TRE/IFN-γ double transgenic mice
Type: in vivo
Protocol: The effects of IFN-γ on demyelination were evaluated in a cuprizone animal model using transgenic mice that allow for temporally regulated delivery of IFN-γ using the tetracycline controllable system (Lin, et al. (2004) J. Neurosci. 24: 10074-10083). The transgenic mice were generated by mating line 110 GFAP/tTA mice on the C57BL/6 background with line 184 TRE/IFN-γ on the C57BL/6 background to produce GFAP/tTA; TRE/IFN-γ double transgenic mice (Lin, et al. (2004) J. Neurosci. 24: 10074-10083). Transcriptional activation of the TRE/IFN-γ transgene by tTA was repressed in the control (DOX+) mice by adding 0.05 mg/ml doxycycline to the drinking water which was provided ad libitum from the day of conception. The DOX+ double transgenic mice were GFAP/tTA; TRE/IFN-γdouble transgenic animals fed cuprizone chow and never released from the doxycycline solution. DOX− double transgenic mice were GFAP/tTA; TRE/IFN-γdouble transgenic animals fed cuprizone chow and released from doxycycline to induce expression of IFN-γ.
Demyelination was induced in 6-week-old DOX+ and DOX− male mice by feeding the mice a diet of milled mouse chow containing 0.2% cuprizone (Sigma-Aldrich, St. Louis, Mo.) for up to 6 weeks. Subsequently, both groups of mice were returned to a normal diet for up to 3 weeks to allow remyelination to occur. All animal procedures were conducted in complete compliance with the NIH Guide for the Care and Use of Laboratory Animals and were approved by the Institutional Animal Care and Use Committee of The University of Chicago.
The effect of INF-γ on the population of oligodendrocytes was evaluated by immunohistochemical analysis of oligodendrocytes using an anti-CC1 antibody (APC7, 1:50; EMD Biosciences, Inc., La Jolla, Calif.) Immunohistochemistry was performed on brain sections obtained from mice that were first anesthetized mice and perfused through the left cardiac ventricle with 4% paraformaldehyde in 0.1M PBS. The brains were removed, postfixed with paraformaldehyde, cryopreserved in 30% sucrose, embedded in OCT and frozen on dry ice. Frozen sections were cut in a cryostat at a thickness of 10 μm. […] Fluorescent stained sections were mounted with Vectashield mounting medium with DAPI (Vector Laboratories) and visualized with a Zeiss Axioplan fluorescence microscope. […] Immunopositive cells were quantified by counting positive cells within the median of the corpus callosum, confined to an area of 0.04 mm^2. Only those cells with nuclei observable by DAPI staining were counted. Each MBP immunostaining slide was scored on a scale of zero to four. […]

B1: IFN-γ: pleotropic cytokine secreted by activated T lymphocytes and natural killer cells; recombinant rat IFN-γ added to cultures or transgenically expressed in mouse CNS (protein, UniProt P01581 23-156, looked up)
Interferon gamma: QGTLIESLESLKNYFNSSSMDAMEGKSLLLDIWRNWQKDGNTKILESQIISFYLRLFEVLKDNQAISNNISVIESHLITNFFSNSKAKKDAFMSIAKFEVNNPQIQHKAVNELIRVIHQLSPESSLRKRKRSRC
B1 was tested, and the remyelinated axons (DOX− mice (IFN-γ expressed), corpus callosum, week 8, control DOX+ 48.4%±4%) was 26.9%±7%, the “CC1 positive oligodendrocytes within the corpus callosum” value (DOX− mice, 8 weeks, control DOX+ 228.7±20.2) was 78±12.7 /0.04 mm2 and the “NG2 positive OPCs in the corpus callosum” value (DOX− mice, week 4 of cuprizone treatment, DOX+ 19±2.12) was 46±4.24 /0.04 mm^2. For the same molecule, the “NG2 positive OPCs in the corpus callosum” value (DOX− mice, week 6, DOX+ 80±2.8) was 31.5±0.71 /0.04 mm^2.
